Experimental data from publication PMC3285539 (Nature, 2012).
One block for each binder: values may come before it.

B6: Rpt3 (natural protein)
chain: MEELGIVTPVEKAVEEKPAVKSYASLLAQLNGTVNNNSALSNVNSDIYFKLKKLEKEYELLTLQEDYIKDEQRHLKRELKRAQEEVKRIQSVPLVIGQFLEPIDQNTGIVSSTTGMSYVVRILSTLDRELLKPSMSVALHRHSNALVDILPPDSDSSISVMGENEKPDVTYADVGGLDMQKQEIREAVELPLVQADLYEQIGIDPPRGVLLYGPPGTGKTMLVKAVANSTKAAFIRVNGSEFVHKYLGEGPRMVRDVFRLARENAPSIIFIDEVDSIATKRFDAQTGSDREVQRILIELLTQMDGFDQSTNVKVIMATNRADTLDPALLRPGRLDRKIEFPSLRDRRERRLIFGTIASKMSLAPEADLDSLIIRNDSLSGAVIAAIMQEAGLRAVRKNRYVILQSDLEEAYATQVKTDNTVDKFDFYK

Columns and labels:
[1] = target: T1, Rpn1 (S. cerevisiae, UniProt P38764 1-993); assay: electron microscopy, variance maps
T1 sequence: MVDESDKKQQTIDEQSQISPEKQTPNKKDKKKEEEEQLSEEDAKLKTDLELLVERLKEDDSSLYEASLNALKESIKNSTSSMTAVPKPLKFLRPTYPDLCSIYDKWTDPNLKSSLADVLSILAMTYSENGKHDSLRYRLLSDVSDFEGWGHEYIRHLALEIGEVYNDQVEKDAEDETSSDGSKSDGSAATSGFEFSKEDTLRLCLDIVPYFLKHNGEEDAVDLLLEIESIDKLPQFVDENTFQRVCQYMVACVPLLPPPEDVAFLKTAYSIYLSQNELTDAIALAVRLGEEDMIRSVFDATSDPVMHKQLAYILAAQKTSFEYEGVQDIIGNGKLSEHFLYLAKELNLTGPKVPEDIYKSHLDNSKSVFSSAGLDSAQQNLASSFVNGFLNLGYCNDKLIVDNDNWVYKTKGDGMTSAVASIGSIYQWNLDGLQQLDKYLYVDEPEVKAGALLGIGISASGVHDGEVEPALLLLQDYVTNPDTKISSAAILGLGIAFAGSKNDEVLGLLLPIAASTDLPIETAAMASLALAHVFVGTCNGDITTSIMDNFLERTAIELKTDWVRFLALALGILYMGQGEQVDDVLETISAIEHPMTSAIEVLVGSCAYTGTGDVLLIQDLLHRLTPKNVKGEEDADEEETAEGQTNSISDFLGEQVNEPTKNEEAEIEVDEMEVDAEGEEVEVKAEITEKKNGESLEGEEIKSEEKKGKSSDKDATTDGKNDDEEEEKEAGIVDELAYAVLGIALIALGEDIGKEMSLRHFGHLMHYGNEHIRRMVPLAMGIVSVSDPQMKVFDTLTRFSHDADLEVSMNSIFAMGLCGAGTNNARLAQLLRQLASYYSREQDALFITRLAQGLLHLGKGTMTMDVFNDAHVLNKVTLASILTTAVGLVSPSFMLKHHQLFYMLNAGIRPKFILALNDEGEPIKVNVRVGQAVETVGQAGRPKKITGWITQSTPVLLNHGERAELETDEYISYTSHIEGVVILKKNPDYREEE

[2] = target: Rpt2 (S. cerevisiae, UniProt P40327 1-437); assay: cryo-EM structure
Rpt2, sequence (P40327 whole entry): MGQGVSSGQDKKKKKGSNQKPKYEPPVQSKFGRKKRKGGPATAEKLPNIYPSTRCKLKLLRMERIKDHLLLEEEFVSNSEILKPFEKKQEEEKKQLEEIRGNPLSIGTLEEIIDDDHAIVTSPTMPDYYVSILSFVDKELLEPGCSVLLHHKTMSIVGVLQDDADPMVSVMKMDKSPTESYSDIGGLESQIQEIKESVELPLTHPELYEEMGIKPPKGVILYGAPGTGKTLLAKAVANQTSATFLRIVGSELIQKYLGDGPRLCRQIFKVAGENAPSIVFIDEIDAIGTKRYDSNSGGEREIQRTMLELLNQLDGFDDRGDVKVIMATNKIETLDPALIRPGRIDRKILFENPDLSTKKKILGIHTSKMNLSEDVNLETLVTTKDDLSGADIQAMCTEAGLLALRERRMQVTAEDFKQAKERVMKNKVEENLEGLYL

[3] = target: T2, Rpn2 (S. cerevisiae, UniProt P32565 1-945); assay: cryo-EM structure
T2 sequence: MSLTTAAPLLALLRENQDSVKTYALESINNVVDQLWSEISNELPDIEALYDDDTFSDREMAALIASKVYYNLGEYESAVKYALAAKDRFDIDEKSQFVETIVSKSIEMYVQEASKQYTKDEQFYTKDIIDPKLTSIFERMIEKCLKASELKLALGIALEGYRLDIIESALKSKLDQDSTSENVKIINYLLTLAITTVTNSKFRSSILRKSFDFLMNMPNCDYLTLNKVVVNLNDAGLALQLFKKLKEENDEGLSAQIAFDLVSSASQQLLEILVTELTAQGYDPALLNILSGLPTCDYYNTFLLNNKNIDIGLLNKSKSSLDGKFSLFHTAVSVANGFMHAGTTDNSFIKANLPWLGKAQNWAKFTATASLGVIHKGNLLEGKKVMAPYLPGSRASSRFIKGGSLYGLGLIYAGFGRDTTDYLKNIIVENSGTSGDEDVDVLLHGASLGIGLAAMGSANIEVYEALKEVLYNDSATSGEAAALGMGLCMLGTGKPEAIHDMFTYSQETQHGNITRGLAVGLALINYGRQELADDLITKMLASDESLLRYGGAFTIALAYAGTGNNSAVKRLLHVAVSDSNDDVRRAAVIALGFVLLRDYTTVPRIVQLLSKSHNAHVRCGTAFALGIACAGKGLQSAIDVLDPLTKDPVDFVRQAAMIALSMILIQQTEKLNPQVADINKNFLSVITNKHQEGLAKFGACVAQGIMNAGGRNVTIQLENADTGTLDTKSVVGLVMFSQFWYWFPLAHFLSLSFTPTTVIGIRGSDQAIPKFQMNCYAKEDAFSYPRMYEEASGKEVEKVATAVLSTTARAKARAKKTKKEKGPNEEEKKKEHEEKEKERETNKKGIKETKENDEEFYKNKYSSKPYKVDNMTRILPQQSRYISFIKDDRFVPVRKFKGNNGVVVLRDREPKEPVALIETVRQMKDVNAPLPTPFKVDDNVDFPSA

[4] = target: B6; assay: cryo-EM structure
[5] = target: T3, Rpn6 (S. cerevisiae, UniProt Q12377 1-434); assay: cryo-EM structure
T3 sequence: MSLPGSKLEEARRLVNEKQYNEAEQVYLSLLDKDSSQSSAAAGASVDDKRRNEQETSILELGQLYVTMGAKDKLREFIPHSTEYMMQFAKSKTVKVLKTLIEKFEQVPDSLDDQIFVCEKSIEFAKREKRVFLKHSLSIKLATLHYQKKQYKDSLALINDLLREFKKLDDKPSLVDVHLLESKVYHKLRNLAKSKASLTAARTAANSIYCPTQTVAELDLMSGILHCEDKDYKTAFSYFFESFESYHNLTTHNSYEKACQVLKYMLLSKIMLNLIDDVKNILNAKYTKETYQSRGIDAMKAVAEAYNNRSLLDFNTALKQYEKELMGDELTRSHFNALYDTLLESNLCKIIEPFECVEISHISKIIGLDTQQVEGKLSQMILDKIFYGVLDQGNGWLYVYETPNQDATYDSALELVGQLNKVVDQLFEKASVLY

[6] = target: T4, Rpn5 (S. cerevisiae, UniProt Q12250 1-445); assay: cryo-EM structure
T4 sequence: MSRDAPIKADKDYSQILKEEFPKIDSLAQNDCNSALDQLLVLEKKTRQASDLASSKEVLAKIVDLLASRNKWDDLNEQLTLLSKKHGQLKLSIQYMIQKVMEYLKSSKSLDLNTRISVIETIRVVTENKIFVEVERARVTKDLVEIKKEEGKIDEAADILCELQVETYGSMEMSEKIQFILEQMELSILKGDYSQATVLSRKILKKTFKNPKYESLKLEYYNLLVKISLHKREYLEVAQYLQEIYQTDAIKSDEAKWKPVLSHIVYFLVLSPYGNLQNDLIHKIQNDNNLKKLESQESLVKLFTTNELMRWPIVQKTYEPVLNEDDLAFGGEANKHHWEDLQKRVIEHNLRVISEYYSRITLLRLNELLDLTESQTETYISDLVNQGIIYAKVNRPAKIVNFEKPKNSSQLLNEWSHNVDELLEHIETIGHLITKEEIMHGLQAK

B1: Ubp6 (enzyme)
chain: MSGETFEFNIRHSGKVYPITLSTDATSADLKSKAEELTQVPSARQKYMVKGGLSGEESIKIYPLIKPGSTVMLLGTPDANLISKPAKKNNFIEDLAPEQQVQQFAQLPVGFKNMGNTCYLNATLQALYRVNDLRDMILNYNPSQGVSNSGAQDEEIHKQIVIEMKRCFENLQNKSFKSVLPIVLLNTLRKCYPQFAERDSQGGFYKQQDAEELFTQLFHSMSIVFGDKFSEDFRIQFKTTIKDTANDNDITVKENESDSKLQCHISGTTNFMRNGLLEGLNEKIEKRSDLTGANSIYSVEKKISRLPKFLTVQYVRFFWKRSTNKKSKILRKVVFPFQLDVADMLTPEYAAEKVKVRDELRKVEKEKNEKEREIKRRKFDPSSSENVMTPREQYETQVALNESEKDQWLEEYKKHFPPNLEKGENPSCVYNLIGVITHQGANSESGHYQAFIRDELDENKWYKFNDDKVSVVEKEKIESLAGGGESDSALILMYKGFGL
binding result [1]: binds

B3: Rpn13 (natural protein)
chain: MSMSSTVIKFRAGVCEYNEDSRLCTPIPVQGEIEIKPNEEEELGFWDFEWRPTEKPVGRELDPISLILIPGETMWVPIKSSKSGRIFALVFSSNERYFFWLQEKNSGNLPLNELSAKDKEIYNKMIGVLNNSSESDEEESNDEKQKAQDVDVSMQD
binding result [3]: binds

B5: 20S core subunit α2 (natural protein)
chain: MTDRYSFSLTTFSPSGKLGQIDYALTAVKQGVTSLGIKATNGVVIATEKKSSSPLAMSETLSKVSLLTPDIGAVYSGMGPDYRVLVDKSRKVAHTSYKRIYGEYPPTKLLVSEVAKIMQEATQSGGVRPFGVSLLIAGHDEFNGFSLYQVDPSGSYFPWKATAIGKGSVAAKTFLEKRWNDELELEDAIHIALLTLKESVEGEFNGDTIELAIIGDENPDLLGYTGIPTDKGPRFRKLTSQEINDRLEAL
binding result [4]: binds | binding result [5]: binds

Binder: B6
binding result [3]: binds | binding result [6]: binds | binding result [5]: binds

B8: Rpn12 (natural protein)
chain: MPSLAELTKSLSIAFENGDYAACEKLLPPIKIELIKNNLLIPDLSIQNDIYLNDLMITKRILEVGALASIQTFNFDSFENYFNQLKPYYFSNNHKLSESDKKSKLISLYLLNLLSQNNTTKFHSELQYLDKHIKNLEDDSLLSYPIKLDRWLMEGSYQKAWDLLQSGSQNISEFDSFTDILKSAIRDEIAKNTELSYDFLPLSNIKALLFFNNEKETEKFALERNWPIVNSKVYFNNQSKEKADYEDEMMHEEDQKTNIIEKAMDYAISIENIV
binding result [3]: binds

Now from value to binder:

binding result [2]: binds
B2: Rpn7 (natural protein)
chain: MVDVEEKSQEVEYVDPTVNRVPNYEVSEKAFLLTQSKVSIEQRKEAAEFVLAKIKEEEMAPYYKYLCEEYLVNNGQSDLEHDEKSDSLNEWIKFDQELYNELCKKNESKIKELNEKIQKLEEDDEGELEQAQAWINLGEYYAQIGDKDNAEKTLGKSLSKAISTGAKIDVMLTIARLGFFYNDQLYVKEKLEAVNSMIEKGGDWERRNRYKTYYGIHCLAVRNFKEAAKLLVDSLATFTSIELTSYESIATYASVTGLFTLERTDLKSKVIDSPELLSLISTTAALQSISSLTISLYASDYASYFPYLLETYANVLIPCKYLNRHADFFVREMRRKVYAQLLESYKTLSLKSMASAFGVSVAFLDNDLGKFIPNKQLNCVIDRVNGIVETNRPDNKNAQYHLLVKQGDGLLTKLQKYGAAVRLTGSDRV

binding result [2]: binds
B4: 20S core subunit α3 (natural protein)
chain: MGSRRYDSRTTIFSPEGRLYQVEYALESISHAGTAIGIMASDGIVLAAERKVTSTLLEQDTSTEKLYKLNDKIAVAVAGLTADAEILINTARIHAQNYLKTYNEDIPVEILVRRLSDIKQGYTQHGGLRPFGVSFIYAGYDDRYGYQLYTSNPSGNYTGWKAISVGANTSAAQTLLQMDYKDDMKVDDAIELALKTLSKTTDSSALTYDRLEFATIRKGANDGEVYQKIFKPQEIKDILVKTGITKKDEDEEADEDMK

binding result [4]: binds | binding result [6]: binds
B7: 20S core subunit α1 (natural protein)
chain: MSGAAAASAAGYDRHITIFSPEGRLYQVEYAFKATNQTNINSLAVRGKDCTVVISQKKVPDKLLDPTTVSYIFCISRTIGMVVNGPIPDARNAALRAKAEAAEFRYKYGYDMPCDVLAKRMANLSQIYTQRAYMRPLGVILTFVSVDEELGPSIYKTDPAGYYVGYKATATGPKQQEITTNLENHFKKSKIDHINEESWEKVVEFAITHMIDALGTEFSKNDLEVGVATKDKFFTLSAENIEERLVAIAEQD
